Read-outs that look alike come from different tables or passages of the source.
How the values were obtained:
[1] = molecular target: monomeric human α-synuclein (Active Human Recombinant Alpha Synuclein Protein Monomer type II, StressMarq … (human, UniProt P37840 1-140)); experiment: SPR (Biacore T200), antibody captured on Protein A chip, α-syn monomer as analyte (Monomer-1), 25 °C; Run01; number of the software's 1:1 fit printed under a sensorgram without binding response (the filing's Table 18: No-binding)
Description: The equipment used was Biacore® T200. The anti-α-syn monospecific antibody or the anti-α-syn/IGF1R bispecific antibody was diluted with 1×HBS-EPT. […] Each diluted monomer sample was injected at 60 μL/min onto the Protein A chip surface for 60 seconds, followed by washing with 1×HBS-EP buffer. The dissociation rate was evaluated for 180 seconds. All procedures in association/dissociation phases were done in single cycle kinetics. The chip surface was regenerated by injecting 10 mM glycine-HCl pH 1.5 (GE Healthcare) onto the chip surface for 60 seconds at 30 μL/min, removing residual α-syn monomer/antibody complex. A 1:1 binding model was used for fitting, and the Biacore® T200 Evaluation software was used for evaluation.

[2] = molecular target: T1, human α-synuclein pre-formed fibrils (Human Alpha Synuclein Pre-formed Fibrils Type II, StressMarq SPR-317) (human, UniProt P37840 1-140); experiment: SPR Biacore T200, antibody captured on Protein A chip, α-syn PFF analyte, 1:1 model
Description: The equipment used was Biacore® (GE Healthcare, Model T200). Protein A (GE Healthcare, Cat: 29-1275-56) was used as a chip, 10 mM glycine-HCl pH 1.5 (GE Healthcare, Cat: BR-1003-54) was used as a regeneration buffer, and HBS-EP was used as a running buffer and an analyte dilution and sample dilution buffer. […] A capture phase was carried out at a contact time of 60 seconds and a flow rate of 30 μL/min was used for a stabilization period of 60 seconds, with the target resonance units (RU) of fibril set to 10 (theoretical). In an association phase, the association time was set to 60 seconds and a flow rate was set to 60 μL/min. In a dissociation phase, the dissociation time was set to 180 seconds, and a flow rate was set to 60 μL/min. In a regeneration phase, the flow rate was set to 30 μL/min, and the regeneration time was set to 60 seconds. A 1:1 binding model was used for fitting, and the Biacore® T200 Evaluation software (GE Healthcare) was used for the evaluation.

[3] = molecular target: human α-synuclein oligomers (Dopamine HCL Stabilized Human Recombinant Alpha Synuclein Oligomers, StressMarq … (human, UniProt P37840 1-140)); experiment: sandwich ELISA, antibody coated, oligomeric α-syn added, 7B7-biotin detection
Description: In this sandwich ELISA, test antibodies were diluted with PBS by five-fold serial dilution from 80 nM to 0.005 nM. The serially diluted antibodies were added to a 96-well plate at 100 μL/well for coating. The plate was sealed and incubated at 4° C. for 16 hours. After washing with PBS-T five times, the plate was blocked with 5% BSA in PBS 200 μL/well at 37° C. for 2 hours. After washing with PBS-T five times, oligomeric α-syn (2 μg/mL, 100 μL/well in 2% BSA in PBS) was added and incubated at 37° C. for 2 hours. After washing with PBS-T five times, 7B7-biotin antibody (1 μg/mL, 100 μL/well, in 2% BSA in PBS) were added and incubated at 37° C. for 2 hours. After washing with PBS-T five times, the plate was incubated with Streptavidin-HRP in 2% BSA in PBS (1:5000, 1 mg/mL stock, 20 ng/well, 100 μL/well) at 37° C. for 1 hour. After washing with PBS-T five times, TMB (100 μL/well) was added and incubated at RT for 5 minutes. The reaction was stopped by the addition of 0.5 N H₂SO₄ (50 μL/well).

[4] = molecular target: T1, human α-synuclein pre-formed fibrils …; experiment: sandwich ELISA, antibody coated, α-syn PFF added, 7B7-biotin detection
Description: (§1) Specifically, the antibodies were diluted with PBS by six-fold serial dilution from 400 nM to 0.009 nM. The diluted antibodies were added to a 96-well plate at 100 μL/well for coating. The plate was sealed and incubated at 4° C. for 16 hours. After washing with phosphate-buffered saline with Tween® (PBS-T; 0.05% Tween® 20) five times, the plate was blocked with 5% BSA in PBS 200 μL/well at 37° C. for 2 hours. After washing with PBS-T five times, α-syn PFF (2 μg/mL, 100 μL/well in 2% BSA in PBS) was added to the plate and incubated at 37° C. for 2 hours. After washing with PBS-T five times, 7B7-biotin antibody (anti-α-syn antibody; 1 μg/mL/100 μL/well, in 2% BSA in PBS) was added and incubated at 37° C. for 2 hours. After washing with PBS-T five times, the plate was incubated with horseradish peroxidase (HRP)-bound streptavidin in PBS with 2% BSA (1:5000, 1 mg/mL stock, 20 ng/well, 100 μL/well) at 37° C. for 1 hour. After washing with PBS-T five times, 3,3′,5,5′-tetramethylbenzidine (TMB) (100 μL/well) was added and incubated at room temperature for 5 minutes. The reaction was stopped by the addition of 0.5 N H₂SO₄ (50 μL/well). Optical absorbance at 450 nm was measured by using a plate reader, with absorbance at 650 nm subtracted from the reading.

[5] = molecular target: T1, human α-synuclein pre-formed fibrils …; experiment: as above; remark: listed apart in the source
Description: as §1

- koff [1]: 2.23 s⁻¹
- kon [1]: 3.57e+07 M⁻¹ s⁻¹
- Kd [2]: 0.0293 nM
- koff [2]: 0.000423 s⁻¹
- kon [2]: 1.45e+07 M⁻¹ s⁻¹
- EC50 [3]: 3.82 nM
- EC50 [4]: 0.334 nM
- EC50 [5]: 0.236 nM
B1: hu1E4(V1_VL1) x Grabody B (bispecific antibody, human IgG1, kappa)
heavy 1: not shown
heavy 2: not shown
light: DIVMTQTPLSLSVTPGQPASISCRSSQSLVHSNGNTYLHWYLQKPGQSPQLLIYKVSNRFSGVPDRFSGSGSGTDFTLKISRVEAEDVGVYYCSQSTHVPRTFGQGTKLEIKRTVAAPSVFIFPPSDEQLKSGTASVVCLLNNFYPREAKVQWKVDNALQSGNSQESVTEQDSKDSTYSLSSTLTLSKADYEKHKVYACEVTHQGLSSPVTKSFNRGEC
notes: Anti-α-syn/IGF1R bispecific; hole heavy chain (M428L) carries the anti-IGF1R scFv Grabody B at its C-terminus through a (G4S)3 linker; knob heavy chain (M428L) without scFv; also called hu1E4(V1 VL1) × Grabody B; 1E4(Ver.1_VL1) × Grabody B
